{
  "source": "patent US20180335433A1",
  "about": "“COMPOSITIONS TARGETING PKC-THETA AND USES AND METHODS OF TREATING PKC-THETA PATHOLOGIES, ADVERSE IMMUNE RESPONSES AND DISEASES” (La Jolla Institute for Allergy and Immunology, priority 2011, published 2018)",
  "molecules": {"B1": {"name": "V3 domain: amino acid 282-379 of human PKCθ with N-terminal Myc tag, expressed from pMIG retroviral vector (protein)", "chain": "GINQKLMAEALAMIESTQQARCLRDTEQIFREGPVEIGLPCSIKNEARPPCLPTPGKREPQGISWESPLDEVDKMCHLPEPELNKERPSLQIKLKIED", "modifications": "left off: small tags and cut ends", "notes": "amino acid 282-379 of human PKCθ with N-terminal Myc tag, expressed from pMIG retroviral vector"}},
  "key": {"NFAT reporter gene": {"test_system": "NFAT reporter gene", "assay": "NFAT luciferase reporter assay in MCC-specific T hybridoma cells", "assay_type": "cell-based", "method": "(FIG. 6A) OT-II CD4^+ T cells were infected with retrovirus expressing Myc-tagged V3 domain, V3 mutated at P330/1/4/6A (V3-4PA), or PR motif-deleted V3 (V3-ΔPR). Infected cells (green) were harvested, stimulated, and fixed. Conjugates were stained with anti-Myc plus a secondary Alexa 555-coupled antibody (orange), and anti-PKCθ plus a secondary Alexa 647-coupled antibody (red). Cells were analyzed as in FIG. 1A. (FIG. 6B) Quantitative analysis of the results shown in (FIG. 6A) from 30-50 T-APC conjugates. ** p<0.05. (FIG. 6C) MCC-specific T hybridoma cells were cotransfected with indicated vector, together with RE/AP-Luc and β-Gal reporter plasmids. Cells were stimulated and analyzed as in FIG. 1C. […] Cytokine-producing cells were analyzed by intracellular staining 8 h after restimulation. […] Normalized luciferase activity was determined in triplicates.\nThe CD28 response element (RE/AP)- or NFAT-luciferase (Luc) reporter genes have been described (Coudronniere, N. et al. Proc Natl Acad Sci USA 97, 3394-3399 (2000)). […] The cells were the lysed and Luc activity was quantitated and normalized to the activity of a cotransfected β-galactosidase (β-Gal) reporter gene.\nTo determine whether ectopic V3 expression also interfered with PKCθ-dependent TCR/CD28 signaling, the effects of V3 on activation of reporter genes and on T cell differentiation into effector Th cells were analyzed. […]"}, "[1]": {"test_system": "Th1-mediated lung inflammation", "assay": "Th1-mediated Ova-induced airway inflammation after adoptive transfer of transduced Th1 effector cells", "assay_type": "in vivo, mouse", "details": "transferred Th1 effector cells", "description": "(FIG. 7A-7D) OT-II CD4^+ T cells stimulated with anti-CD3 plus anti-CD28 mAbs and differentiated in vitro under Th2 (FIG. 7A-7C) or Th1 (FIG. 7D, 7E)-polarizing conditions were retrovitrally transduced with the same PKCθ V3 vectors as in FIG. 6. Sorted GFP^+ populations were adoptively transferred into naïve B6 mice, which were challenged with aerosolized Ova for 3 consecutive days. BAL fluid were obtained 1 d post-challenge and analyzed for total mononuclear cell infiltration (FIG. 7A, 7D) and cytokine expression using IL-4 (FIG. 7B), IL-5 (FIG. 7C) and IFN-γ (FIG. 7E) ELISA.\nCD4^+ T cells from OT-II B6 mice were isolated and cultured with plate-bound anti-CD3 (5 μg/ml), soluble anti-CD28 (2.5 μg/ml) and IL-2 (100 U/ml) under Th1 or Th2 polarizing conditions. The cells were retrovirally infected on days 2-4 and cultured for an additional 3 days. GFP^+ cells were sorted, and 1×10^6 cells were injected intravenously into naïve WT B6 mice. One day later, mice received aerosolized Ova (5 mg/ml in 20 ml PBS) for 30 min, once a day for 3 consecutive days, using ultrasonic nebulization. Mice were sacrificed 24 h after the last challenge and assessed for lung inflammation. Collection of BAL fluid and determination of cytokine levels were carried out as described (Salek-Ardakani, S. et al. J Immunol 173, 6440-6447 (2004))."}, "[2]": {"test_system": "Naïve CD4+ T cells from B6 mice, Th9 cells", "assay": "In vitro Th9 differentiation of retrovirally transduced CD4+ T cells", "assay_type": "cell-based, mouse", "details": "Th9-polarizing conditions (IL-4+TGFβ), IL-9-producing cells", "method": "Naïve CD4^+ T cells from B6 mice stimulated with anti-CD3 plus anti-CD28 mAbs and differentiated in vitro under Th9-polarizing conditions (IL-4+TGFβ) were retrovirally transduced with empty pMIG vector, or with the indicated PKCθ V3 vectors. Transduced (GFP+) cells were sorted and IL-9-producing cells were analyzed by intracellular staining 8 h after restimulation. Cumulative data showing percentage of cytokine-producing. V3-4PA refers to mutation of 4 Pro residues in the Pro-rich motif to Ala and V3-DPR refers to deletion of the Pro-rich motif (ARPPCLPTP).\nTh9 cells have been reported to play an important role in promoting allergic diseases such as asthma (J. Asthma 48:115, 2011; Curr. Opin. Immunol. 24:1, 2012. These findings indicate that allergic disease such as asthma can be treated in accordance with the invention."}},
  "data": [
    {"molecule": "B1", "values": [
      {"measurement": "inhibition of NFAT reporter gene activity stimulated by WT PKCθ", "setting": "NFAT reporter gene; coexpressed at increasing levels together with WT PKCθ", "value": "inhibited in a dose-dependent manner"},
      {"measurement": "activation of NFAT reporter gene", "setting": "NFAT reporter gene; expression of the V3 alone", "value": "did not activate"},
      {"measurement": "inhibition of the Th1 lung inflammation response (leukocyte infiltration, IFN-γ in BAL fluid)", "setting": "[1]", "value": "did not inhibit"},
      {"measurement": "effect on differentiation of Th9 cells", "setting": "[2]", "value": "interferes"}
    ]}
  ]
}
